B1: Pistol ribozyme (parent)
chain: GGGUCGUUGUUCCAUAAUCGCGUGGAUAUGGCACGCAAGUUUCUACCGGGCACCGUAAAUGUCCGACUGGAGCCGUUCGGGCGGCUAUAAACAGACCUCAGGCCCGAAGCGUGGCGGCACCUGCCGCCGGUGGUAAAAAAGAUCGGAAGAGCACACGUCU

Variants of: B1
Experiment: aptazyme ON/OFF ratio, guanine; higher = stronger switching; co-transcriptional cleavage with and without guanine

Variant	aptazyme ON/OFF ratio
U8A G9U U10A U11C	1.03
U8A G9U U10A C12U	1.4
U8A G9U U10A C12A	1.34
U8A G9U U10A C12G	1.31
U8A G9U U10A C13A	1.26
U8A G9U U10A C13U	1.2
U8A G9U U10A C13G	1.1
U8A G9U U10A U11G C12G	1.24
U8A G9U U10A U11G C12U	1.37
U8A G9U U10A U11G C12A	1.07
U8A U10A C12U C13U	1.25
U8A U10A C12U C13A	1.21
U8A U10A C12U C13G	1.13
U8A G9U U10A C12G C13U	1.33
U8A G9U U10A C12G C13G	1.28
U8A G9U U10A C12G C13A	1.34
U8A G9U U10G U11G C12G C13U	1.34
U8A G9U U10G U11G C12G C13A	1.05
U8A G9U U10G U11G C12G C13G	1.32
U8A G9U U10G C12A C13A	1.18
U8A G9U U10G C12A C13G	1.12
U8A G9U U10G C12A C13U	1.5
U8A G9U U11C C13G	1.02
U8A G9U U11C C13U	1.03

Variant	aptazyme ON/OFF ratio
U8A G9U U11C C13A	1.04
U8A G9U U10G U11G	1.09
U8A G9U U10G U11A	1.07
U8A G9U U10G U11C	1.06
U8A G9U U10C C12A	1.04
U8A G9U U10C C12U	1.08
U8A G9U U10C C12G	1.04
U8A G9U U10A U11A C12U C13A	1.21
U8A G9U U10A U11A C12U C13G	1.36
U8A G9U U10A U11A C12U C13U	1.53
U8A G9U U10G C12U C13U	1.45
U8A G9U U10G C12U C13G	1.27
U8A G9U U10G C12U C13A	1.31
U8A G9U U10C U11G C12G C13A	1.15
U8A G9U U10C U11G C12G C13G	1.11
U8A G9U U10C U11G C12G C13U	1.11
U8A G9U U10C C12U C13U	1.18
U8A G9U U10C C12U C13G	1.07
U8A G9U U10C C12U C13A	1.08
U8A G9U U10C U11C C12G C13A	1.07
U8A G9U U10C U11C C12G C13G	1.08
U8A G9U U10C U11C C12G C13U	1.02
U8A G9C U11G C12G C13G	1.14
U8A G9C U11G C12G C13U	1.07

Variant	aptazyme ON/OFF ratio
U8A G9C U11G C12G C13A	1.18
U8A G9U U10C U11A C12A C13G	1.12
U8A G9U U10C U11A C12A C13A	1.14
U8A G9U U10C U11A C12A C13U	1.17
U8A G9C U11C C12G C13U	1.06
U8A G9C U11C C12G C13A	1.07
U8A G9C U11C C12G C13G	1.05
U8A G9U U10C U11C C13U	1.03
U8A G9U U10C U11C C13A	1
U8A G9U U10C U11C C13G	1.01
U8A G9U U10C U11G C12A C13G	1.25
U8A G9U U10C U11G C12A C13A	1.19
U8A G9U U10C U11G C12A C13U	1.12
U8A G9U U10C U11G C12G	1.09
U8A G9U U10C U11G C12A	1.05
U8A G9U U10C U11G C12U	1.18
U8A G9U U10C U11A C12U C13A	1.26
U8A G9U U10C U11A C12U C13U	1.15
U8A G9U U10C U11A C12U C13G	1.1
U8A G9U U10A U11A C12U	1.32
U8A G9U U10A U11A C12G	1.25
U8A G9U U10A U11A C12A	1.36
U8A G9U U10G U11G C12U C13G	1.21
U8A G9U U10G U11G C12U C13A	1.32

Variant	aptazyme ON/OFF ratio
U8A G9U U10G U11G C12U C13U	1.35
U8A G9U U10A U11C C12G C13A	1.14
U8A G9U U10A U11C C12G C13U	1.34
U8A G9U U10A U11C C12G C13G	1.12
U8A G9C U11A C12U C13U	1.15
U8A G9C U11A C12U C13A	1.14
U8A G9C U11A C12U C13G	1.15
U8A G9U U11C C12G C13U	1.16
U8A G9U U11C C12G C13A	1.14
U8A G9U U11C C12G C13G	1.16
U8A G9U U10G C12G C13U	1.28
U8A G9U U10G C12G C13A	1.29
U8A G9U U10G C12G C13G	1.15
U8A G9U U10G U11G C13U	1.03
U8A G9U U10G U11G C13A	1.08
U8A G9U U10G U11G C13G	1.06
U8A U10A U11A	1.14
U8A G9U U10G U11C C13A	1.03
U8A G9U U10G U11C C13G	1.04
U8A G9U U10G U11C C13U	1.02
U8A G9U U10C U11G C12U C13U	1.25
U8A G9U U10C U11G C12U C13G	1.14
U8A G9U U10C U11G C12U C13A	1.11
U8A G9U U11G C13A	1.14

Variant	aptazyme ON/OFF ratio
U8A G9U U11G C13G	1.08
U8A G9U U11G C13U	1.24
U8A G9U U10C U11G C13U	1.14
U8A G9U U10C U11G C13G	1.05
U8A G9U U10C U11G C13A	1.12
U8A G9U U10G C13U	1.55
U8A G9U U10G C13A	1.18
U8A G9U U10G C13G	1.13
U8A G9U U10C U11C C12A C13U	1.04
U8A G9U U10C U11C C12A C13A	1.01
U8A G9U U10C U11C C12A C13G	1.05
U8A G9U U10C U11A C13U	1.17
U8A G9U U10C U11A C13G	1.03
U8A G9U U10C U11A C13A	1.06
U8A G9U C12G C13A	1.21
U8A G9U C12G C13U	1.26
U8A G9U C12G C13G	1.23
U8A G9U U10A U11C C12A C13U	1.25
U8A G9U U10A U11C C12A C13G	1.2
U8A G9U U10A U11C C12A C13A	1.23
U8A G9U U10A C12A C13G	1.12
U8A G9U U10A C12A C13U	1.36
U8A G9U U10A C12A C13A	1.22
U8A G9U	2.15

Variant	aptazyme ON/OFF ratio
U8A G9U U10A U11G C12A C13G	1.19
U8A G9U U10A U11G C12A C13U	1.21
U8A G9U U10A U11G C12A C13A	1.01
U8A G9C U11A C12U	1.22
U8A G9C U11A C12A	1.19
U8A G9C U11A C12G	1.22
U8A G9U U10A U11C C12U	1.11
U8A G9U U10A U11C C12G	1.09
U8A G9U U10A U11C C12A	1.07
U8A G9U U10G U11C C12A	1.04
U8A G9U U10G U11C C12G	1.07
U8A G9U U10G U11C C12U	1.01
U8A G9U U11A C12G C13U	1.3
U8A G9U U11A C12G C13A	1.32
U8A G9U U11A C12G C13G	1.3
U8A U10A C13G	1.06
U8A U10A C13U	1.03
U8A U10A C13A	1.05
U8A G9U U10A U11G C13A	1.23
U8A G9U U10A U11G C13U	1.25
U8A G9U U10A U11G C13G	1.08
U8A G9U U10A C12U C13G	1.18
U8A G9U U10A C12U C13U	1.13
U8A G9U U10A C12U C13A	1.25

Variant	aptazyme ON/OFF ratio
U8A G9U U11C	1.03
U8A G9U U11G	1.63
U8A G9U U11A	1.79
U8A G9C U11C C12U C13G	1.04
U8A G9C U11C C12U C13U	1.01
U8A G9C U11C C12U C13A	1.05
U8A G9U U10A U11C C12U C13U	1.18
U8A G9U U10A U11C C12U C13G	1.22
U8A G9U U10A U11C C12U C13A	1.25
U8A G9U U10A U11C C13A	1.04
U8A G9U U10A U11C C13G	1.08
U8A G9U U10A U11C C13U	1.02
U8A G9U U11C C12U	1.13
U8A G9U U11C C12A	1
U8A G9U U11C C12G	1.08
U8A G9C U10G U11G C13G	1.16
U8A G9C U10G U11G C13A	1.23
U8A G9C U10G U11G C13U	1.23
U8A G9C U11A C13G	1.06
U8A G9C U11A C13A	1.16
U8A G9C U11A C13U	1.16
U8A G9C U10G U11G C12A C13G	1.14
U8A G9C U10G U11G C12A C13U	1.21

Source: the RNAGym collection of RNA variant scans (doi:10.1021/acssynbio.7b00057)
